Source: paper PMC6589575

Biological target: His6–Drp1, full-length Drp1-short isoform
Test: co-sedimentation

percent of His6–Drp1 in the pellet (with GMP–PCP and His6–cyclin C): 34%
percent of His6–Drp1 in the pellet (with GMP–PCP): 16%
Substance: His6–Drp1, full-length Drp1-short isoform (enzyme)
